Reference: paper PMC8831504

Molecular target: cpNanoLuc α-amylase biosensor (VHH-cpNanoLuc-VHH fusion)
Assay: luminescence titration of a single-component biosensor; 1 nM biosensor in 200 μl 20 mM Tris-HCl pH 7.2, 100 mM NaCl with 0.25 μl furimazine stock, titrated with its protein ligand; preincubated 15 min at room temperature; luminescence 445-470 nm; fit to a quadratic binding equation

Chain of cpNanoLuc α-amylase biosensor (VHH-cpNanoLuc-VHH fusion) (main, as listed by the source): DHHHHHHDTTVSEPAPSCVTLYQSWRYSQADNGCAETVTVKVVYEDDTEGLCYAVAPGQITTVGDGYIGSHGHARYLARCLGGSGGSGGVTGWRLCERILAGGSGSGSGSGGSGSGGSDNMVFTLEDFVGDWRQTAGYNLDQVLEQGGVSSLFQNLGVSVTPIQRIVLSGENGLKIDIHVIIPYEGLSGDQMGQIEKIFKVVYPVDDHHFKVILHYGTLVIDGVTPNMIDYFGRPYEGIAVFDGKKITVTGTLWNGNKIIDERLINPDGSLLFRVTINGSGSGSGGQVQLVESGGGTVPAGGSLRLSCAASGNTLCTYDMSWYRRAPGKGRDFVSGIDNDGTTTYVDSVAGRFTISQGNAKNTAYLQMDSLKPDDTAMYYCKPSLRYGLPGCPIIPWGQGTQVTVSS

- Kd: 500 pM
B1: human α-amylase (enzyme)
chain: QYSSNTQQGRTSIVHLFEWRWVDIALECERYLAPKGFGGVQVSPPNENVAIHNPFRPWWERYQPVSYKLCTRSGNEDEFRNMVTRCNNVGVRIYVDAVINHMCGNAVSAGTSSTCGSYFNPGSRDFPAVPYSGWDFNDGKCKTGSGDIENYNDATQVRDCRLSGLLDLALGKDYVRSKIAEYMNHLIDIGVAGFRIDASKHMWPGDIKAILDKLHNLNSNWFPEGSKPFIYQEVIDLGGEPIKSSDYFGNGRVTEFKYGAKLGTVIRKWNGEKMSYLKNWGEGWGFMPSDRALVFVDNHDNQRGHGAGGASILTFWDARLYKMAVGFMLAHPYGFTRVMSSYRWPRYFENGKDVNDWVGPPNDNGVTKEVTINPDTTCGNDWVCEHRWRQIRNMVNFRNVVDGQPFTNWYDNGSNQVAFGRGNRGFIVFNNDDWTFSLTLQTGLPAGTYCDVISGDKINGNCTGIKIYVSDDGKAHFSISNSAEDPFIAIHAESKL
